Experimental data: patent US20110166034A1

How the values were obtained:
[1] = biological target: TCR of murine OT1 lymphocytes (specific for OVA257-264); test: cell-based or functional assay
[2] = biological target: F5 MART-1 TCR, on Jurkat^α-MART-1 cells or on transduced human PBMCs; test: immuno-PCR of the DNA tag after staining of cells, gel electrophoresis
[3] = biological target: F5 MART-1 TCR, on Jurkat^α-MART-1 cells or on transduced human PBMCs; test: multiplexed cell sorting of a 1:1 cell mix; the number is an average over spots A and B
[4] = biological target: TCR specific for tyrosinase368-376, on Jurkat^α-Tyr cells; test: immuno-PCR of the DNA tag after staining of cells, gel electrophoresis (non-cognate control)
[5] = biological target: F5 MART-1 TCR, on Jurkat^α-MART-1 cells or on transduced human PBMCs; test: T cell capture density against the amount of p/MHC spotted on the covalent surface, Hill fit
[6] = biological target: TCR specific for tyrosinase368-376, on Jurkat^α-Tyr cells; test: cell capture on a NACS array, mean of three spots of about 600 µm
[7] = biological target: TCR specific for tyrosinase368-376, on Jurkat^α-Tyr cells; test: multiplexed cell sorting of a 1:1 cell mix; the number is an average over spots A and B

H-2Kb-OVA257-264 ssDNA-p/MHC tetramers (SAC scaffold, encoded to strands A', B' and C') (from UniProt P01901 22-305) (peptide-MHC)
IFN-y clusters (ELISPOT-type sandwich assay on the array) [1]: 3 clusters

MART-1 26-35/HLA-A2.1 ssDNA-p/MHC tetramer on the SAC scaffold (from UniProt P61769 21-119) (peptide-MHC)
PCR cycles to detection of the DNA tag [2]: < 15 cycles
average density (T cells/spot) [3]: 661 T cells/spot
PCR cycles to detection of the DNA tag [4]: 10 cycles

fluorescent MART-1 SA-PE tetramer (MART-1 26-35 loaded onto HLA-A2.1 MHC molecules) (from UniProt P61769 21-119) (peptide-MHC)
K1/2 (p/MHC monomer at half max) [5]: 5.7 ng

tyrosinase368-376/HLA-A2.1 ssDNA-p/MHC tetramer on the SAC (streptavidin-cysteine) scaffold (from UniProt P61769 21-119) (peptide-MHC)
mean binding capacity (cells per spot) (T cells per spot) [6]: 1490
average density (T cells/spot) [7]: 661 T cells/spot
